Experimental data taken from the supplement of paper PMC9112550, “Optimization of the antimicrobial peptide Bac7 by deep mutational scanning” (BMC Biology, 2022).

Test system: Escherichia coli TOP10
Experiment: shrunken log2 fold change of peptide-encoding DNA abundance (4.5 h post-induction vs induction); higher = less antimicrobial activity (less host growth inhibition)
Details: time post-induction: 4.5 h; library: site-saturation at positions 5, 18, 19, 20
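Also: peptides expressed intracellularly from a pBAD plasmid library in pooled LB shake-flask culture, induced with 0.3% L-arabinose, DNA abundance read by NGS, three biological replicates, DESeq2 with apeglm shrinkage.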

| Sequence | shrunken log2 fold change |
| --- | --- |
| RRIRHRPPRLPRPRPRPHCWPRP | -0.0124 |
| RRIRHRPPRLPRPRPRPHDNPRP | -0.483 |
| RRIRHRPPRLPRPRPRPHENPRP | -0.0891 |
| RRIRHRPPRLPRPRPRPHETPRP | 0.0369 |
| RRIRHRPPRLPRPRPRPHGFPRP | -0.0127 |
| RRIRHRPPRLPRPRPRPHISPRP | -0.226 |
| RRIRHRPPRLPRPRPRPHKRPRP | 0.0586 |
| RRIRHRPPRLPRPRPRPHKWPRP | -0.0897 |
| RRIRHRPPRLPRPRPRPHMGPRP | -0.238 |
| RRIRHRPPRLPRPRPRPHMQPRP | -0.616 |
| RRIRHRPPRLPRPRPRPHMVPRP | -1.01 |
| RRIRHRPPRLPRPRPRPHMYPRP | -0.0666 |
| RRIRHRPPRLPRPRPRPHPRPRP | 0.224 |
| RRIRHRPPRLPRPRPRPHPWPRP | -0.0988 |
| RRIRHRPPRLPRPRPRPHQWPRP | -0.0218 |
| RRIRHRPPRLPRPRPRPHRQPRP | -0.0335 |
| RRIRHRPPRLPRPRPRPHSKPRP | -0.32 |
| RRIRHRPPRLPRPRPRPHVTPRP | -0.373 |
| RRIRHRPPRLPRPRPRPHVYPRP | -0.939 |
| RRIRHRPPRLPRPRPRPHWEPRP | -0.211 |
| RRIRHRPPRLPRPRPRPHWMPRP | -0.785 |
| RRIRHRPPRLPRPRPRPICCPRP | 0.055 |
| RRIRHRPPRLPRPRPRPICGPRP | 0.00743 |
| RRIRHRPPRLPRPRPRPICLPRP | -0.225 |
| RRIRHRPPRLPRPRPRPICNPRP | -0.422 |

| Sequence | shrunken log2 fold change |
| --- | --- |
| RRIRHRPPRLPRPRPRPIDNPRP | -0.359 |
| RRIRHRPPRLPRPRPRPIDWPRP | 0.0599 |
| RRIRHRPPRLPRPRPRPIFHPRP | -0.155 |
| RRIRHRPPRLPRPRPRPIGFPRP | -0.0167 |
| RRIRHRPPRLPRPRPRPIGLPRP | 0.0101 |
| RRIRHRPPRLPRPRPRPIHAPRP | -0.173 |
| RRIRHRPPRLPRPRPRPILHPRP | -0.0471 |
| RRIRHRPPRLPRPRPRPILTPRP | -0.201 |
| RRIRHRPPRLPRPRPRPIMFPRP | -0.439 |
| RRIRHRPPRLPRPRPRPIMYPRP | -0.169 |
| RRIRHRPPRLPRPRPRPINKPRP | -0.652 |
| RRIRHRPPRLPRPRPRPINNPRP | -0.7 |
| RRIRHRPPRLPRPRPRPIPDPRP | -0.275 |
| RRIRHRPPRLPRPRPRPIRGPRP | 0.0308 |
| RRIRHRPPRLPRPRPRPITAPRP | -0.303 |
| RRIRHRPPRLPRPRPRPITCPRP | -0.0107 |
| RRIRHRPPRLPRPRPRPITFPRP | -0.0514 |
| RRIRHRPPRLPRPRPRPITKPRP | -0.107 |
| RRIRHRPPRLPRPRPRPITYPRP | -0.184 |
| RRIRHRPPRLPRPRPRPIVWPRP | -0.2 |
| RRIRHRPPRLPRPRPRPIWCPRP | -0.0133 |
| RRIRHRPPRLPRPRPRPIYGPRP | -0.0133 |
| RRIRHRPPRLPRPRPRPKAKPRP | 0.00599 |
| RRIRHRPPRLPRPRPRPKDMPRP | -0.282 |
| RRIRHRPPRLPRPRPRPKDNPRP | -0.201 |

| Sequence | shrunken log2 fold change |
| --- | --- |
| RRIRHRPPRLPRPRPRPKFGPRP | 0.0962 |
| RRIRHRPPRLPRPRPRPKGEPRP | -0.0141 |
| RRIRHRPPRLPRPRPRPKGRPRP | 0.0526 |
| RRIRHRPPRLPRPRPRPKGYPRP | -0.0529 |
| RRIRHRPPRLPRPRPRPKHSPRP | -0.347 |
| RRIRHRPPRLPRPRPRPKHVPRP | -0.15 |
| RRIRHRPPRLPRPRPRPKIMPRP | -0.811 |
| RRIRHRPPRLPRPRPRPKIWPRP | -0.0285 |
| RRIRHRPPRLPRPRPRPKKFPRP | -0.123 |
| RRIRHRPPRLPRPRPRPKKPPRP | -0.125 |
| RRIRHRPPRLPRPRPRPKKRPRP | -0.163 |
| RRIRHRPPRLPRPRPRPKLIPRP | -0.0143 |
| RRIRHRPPRLPRPRPRPKNQPRP | -0.16 |
| RRIRHRPPRLPRPRPRPKPNPRP | 0.225 |
| RRIRHRPPRLPRPRPRPKPPPRP | 0.55 |
| RRIRHRPPRLPRPRPRPKPTPRP | 0.0736 |
| RRIRHRPPRLPRPRPRPKQQPRP | -0.0484 |
| RRIRHRPPRLPRPRPRPKRYPRP | -0.0093 |
| RRIRHRPPRLPRPRPRPKSVPRP | -0.0127 |
| RRIRHRPPRLPRPRPRPKTKPRP | 0.0995 |
| RRIRHRPPRLPRPRPRPKTVPRP | -0.154 |
| RRIRHRPPRLPRPRPRPKVFPRP | -0.00193 |
| RRIRHRPPRLPRPRPRPKVPPRP | 0.0497 |
| RRIRHRPPRLPRPRPRPKVRPRP | -0.0711 |
| RRIRHRPPRLPRPRPRPKVYPRP | 0.0338 |
